Data published in US20150231240A1, “ANTI-C16ORF54 ANTIBODIES AND METHODS OF USE THEREOF” (priority 2012, published 2015).
Positions count from the first letter of the chain named.

B1: R29-8-50C (antibody, V domains shown)
VH: EVKLVESGGGLVKPGGSLKFSCAASGFTFSSYAVSWVRQTPEKRLEWVASITSGGRTYYPDSVKGRFTISRDNARSMLYLHMSSLRSEDTAMYYCTRGWDENDLWGQGTTLTVSS
VL: DVVMTQTPLSLPVSLGDQASISCRSSQSLVYSNGNTYLHWYLQRPGQSPQLLIYKVSNRFSGVPDRFSGSGSGTDFTLKISRVEAEDLGVYFCSQTTHVPWTFGGGTKLEIK
notes: Murine monoclonal antibody from a hybridoma
B2: R29-7A-53A (antibody, V domains shown)
VH: QVQLKESGPGLVAPSQSLSITCTVSGFSLTDYAISWIRQPPGKGLEWLGVIWGGGRTYSNSALKSRLSISKDNSRSQIFLKMNSLQTDDTAMYYCAKHEEVSRFAYWGQGTLVTVSV
VL: B1 VL with M4L, T36S, R44K, Q50K, S81T, T96S, V99I, W101L, G105A, I111L
notes: Murine monoclonal antibody from a hybridoma; also called R29-7-53A
B3: R29-7A-54C (antibody, V domains shown)
VH: B2 VH
VL: B1 VL with M4L, T36S, R44K, Q50K, S81T, T96S, V99I, W101L, G105A, I111L
notes: Murine monoclonal antibody from a hybridoma; also called R29-7-54C
B4: R29-8-28C (antibody, V domains shown)
VH: EVKLVESGGGVVKPGGSLTLSCAASGFTFSNYAVSWFRQTPEKRLEWVASITSGGRTYYPDSMKGRFTISRDNARNILYLQMSSLRSEDTAIYYCGRGWDENDYWGQGTTLTVSS
VL: B1 VL with R44K, Q50K, S81N
notes: as for B1
B5: R29-8-9B (antibody, V domains shown)
VH: EVKLVESGGGVVKPGGSLKLSCAASGFTFSSYAMSWFRQTSEMSLEWVASITGGGGTYYPDSVKGRFTISRDTVRNILYLQMRSLRSGDTAIYYCARGWDENDYWGQGTTLTVSS
VL: B1 VL with T7I, Y31F, L42F, R44K, Q50K, T77I, K79R, T96S
notes: as for B1
B6: R29-8-19B (antibody, V domains shown)
VH: B1 VH
VL: B1 VL with R44K
notes: as for B1
B7: R29-8-120B (antibody, V domains shown)
VH: KVNLVESGGGLVKAGGSLKLSCAASGFTFSIYAMSWFRQTPEKRLEWVASITGGGTNFYPDSVRGRFTISRDNVRNILYLQMSSLRSEDTAMYYCARGWDENDYWGQGTTLTVSS
VL: B1 VL with R44K, Q50K, T96S
notes: as for B1
B8: R29-8-12A (antibody, V domains shown)
VH: B1 VH
VL: B1 VL with R44K
notes: as for B1
B9: R29-8-36C (antibody, V domains shown)
VH: B1 VH with T57S
VL: B1 VL with P12F, V30L
notes: as for B1
B10: R29-7-1C-mcMMAF (protein)
VH: DVQLQESGPGLVKPSQSLSLTCTVTGYSITSDYAWNWIRQFPGNKLEWMGYISYSGSIRYNPSLKSRISITRDTSKNQFFLQLNSVTTEDTATYYCAREKYDNYYYAMDYWGQGTSVTVSS
VL: DIVMSQSPSSLAVSVGEKVTLSCKSSQNLLYSTNQKNYLAWYQQKPGQSPKLLIYWASTRESGVPDRFTGSGSGTDFTLTISSVKAEDLAVYYCQQYYSYRTFGGGTKLEIK
modifications: maleimidocaproyl-monomethylauristatin F (MC-MMAF) on reduced cysteine thiols of the antibody; positions not given
B11: R29-8-57B mcMMAF (protein)
VH: B10 VH with S53N, I58T, Q78H, T88P, Y95H, K100R, N103G, Y104V, A107G
VL: B10 VL with L21M, N28S, T33S, A86T
modifications: maleimidocaproyl-monomethylauristatin F (MC-MMAF) on reduced cysteine thiols of the antibody; positions not given
B12: R29-67-7A mcMMAF (protein)
VH: B10 VH with S53N, S57R, I58T, K65N, I70L, K76T, K100N, N103Y, Y104E, Y105F
VL: B10 VL with L21M, T33S, S99I
modifications: maleimidocaproyl-monomethylauristatin F (MC-MMAF) on reduced cysteine thiols of the antibody; positions not given

test system: KG-1 (acute myeloid leukemia) xenograft; assay: not given; format: in vivo, NOD-SCID mice; conditions: Table 44; dose not given; KG-1 AML model
Protocol: Subcutaneous tumors are generated by injection of 1×10^7 cancer cells in a mixture of PBS (without magnesium or calcium) and BD Matrigel™ (BD Biosciences) at a 1:1 ratio in the right flank of female SCID or nu^−/− mice. The injected total volume per mouse is […] with 50% being Matrigel (BD Biosciences). Mice are randomized once tumors reach a size between 65-200 mm^3. Antibodies are administered weekly, and body weights and tumors are measured once and twice weekly, respectively. Tumor volume is calculated as described (van der Horst et al. (2009) Neoplasia 11: 355-364). As a negative control, mice are injected with either purified mouse IgG or PBS; or a purified monoclonal antibody that recognizes an antigen other than C16orf54.
Anti-C16orf54 antibodies were tested for their anti-tumor activity in an animal-tumor model. For these studies, the cell line KG-1 (acute myeloid leukemia) was obtained from ATCC and cultured according to the suppliers' protocols. Animals were obtained from Taconic (Hudson, N.Y.). Studies were conducted with anti-C16orf54 antibodies and antibody-drug conjugates (ADCs) of these antibodies.
In these experiments, 4-6 week-old immunodeficient NOD-SCID female mice were used for the KG-1 tumor model. Mice were subcutaneously injected on the right flank with 6×10^6 viable cells (KG-1) in a mixture of PBS (without magnesium or calcium) and BD Matrigel™ (BD Biosciences). Once the tumor reached a size between 65-200 mm^3 mice were randomized. Anti-C16orf54 antibodies were administered weekly, and bodyweights and tumors were measured once and twice weekly, respectively. Tumor volume was calculated as described (van der Horst et al., supra). Experiments were performed on groups of at least eight animals per experimental point.
Statistical significance between treatment and control groups was calculated using the Graphpad Prism® software package and applying Student's two-tailed t-test. A p-value of less than 0.05 was considered significant.

Molecule | TGI [%] | Volume [mm^3]
O=P1(N(CCCl)CCCl)NCCCO1 (stereo not drawn) [Cyclophosphamide] | −42 | 1580

target: T1, human C16orf54 (human, UniProt Q6UWD8 1-224); assay: flow cytometry, 10 ug/ml antibody, D42M1-huC16orf54 cells; conditions: not given
T1 construct: also called huC16orf54; hC16orf54
T1 sequence: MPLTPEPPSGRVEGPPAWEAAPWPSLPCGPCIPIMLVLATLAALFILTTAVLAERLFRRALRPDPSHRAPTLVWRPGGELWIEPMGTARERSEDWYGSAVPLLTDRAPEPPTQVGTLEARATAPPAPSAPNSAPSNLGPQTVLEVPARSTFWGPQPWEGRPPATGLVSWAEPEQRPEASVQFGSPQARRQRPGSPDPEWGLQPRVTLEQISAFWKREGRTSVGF
Protocol: (§1) Anti-C16orf54 antibodies which bound to human C16orf54 were tested for their reactivity with human C16orf54 and their crossreactivity with C16orf54 from cynomolgous monkeys (cyno C16orf54) using flow cytometry. Sarcoma cells transfected with and expressing human C16orf54 or cyno C16orf54 were washed with PBS with 0.1% BSA, incubated with FcX receptor blocking solution (BioLegend) for 15 minutes, incubated with 10 μg/ml of anti-C16orf54 antibody for 1 hour at 4° C., washed twice with PBS with 0.1% BSA, incubated with 20 μg/ml of R-Phycoerythrin-AffiniPure F(ab′)2 Fragment Goat Anti-Mouse IgG, Fcγ Fragment Specific (Jackson ImmunoResearch) for 30 minutes at 4° C., washed twice with PBS with 0.1% BSA, incubated with the viability dye TO-PRO-3 iodide (Life Technologies), and immediately analyzed on a MACSQuant Analyzer instrument (Miltenyi). For each cell line and anti-C16orf54 antibody, a fold change was derived by dividing the median fluorescence intensity for Phycoerythrin in the live cell population for the anti-C16orf54 antibody by the median fluorescence intensity for Phycoerythrin in the live cell population for the IgG isotype control antibody. A number of anti-C16orf54 antibodies (see, e.g., R29-8-57B, R29-8-136C, R29-7-1C, R29-67-7A, R29-67-4A, and R29-7-2A) bind human C16orf54 and also bind (e.g., are crossreactive with) cyno C16orf54.

Molecule | Median fold change relative to IgG control [fold]
B1 | 159
B2 | 5.7
B3 | 12.1
B4 | 156
B5 | 194
B6 | 198
B7 | 106
B8 | 193
B9 | 184

Target: T2, cynomolgus monkey C16orf54 (cynomolgus monkey (Macaca fascicularis), UniProt Q6UWD8 1-224 (human entry))
T2 construct: also called cyno C16orf54; cyno-C16orf54
T2 chain: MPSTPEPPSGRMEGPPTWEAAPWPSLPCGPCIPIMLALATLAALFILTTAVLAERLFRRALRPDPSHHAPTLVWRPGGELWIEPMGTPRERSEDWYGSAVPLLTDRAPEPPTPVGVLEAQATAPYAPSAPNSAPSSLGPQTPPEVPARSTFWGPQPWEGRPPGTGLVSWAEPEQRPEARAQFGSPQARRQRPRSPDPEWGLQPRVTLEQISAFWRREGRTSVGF
Assay: flow cytometry, 10 ug/ml antibody, F279-cyno-C16orf54 cells
Conditions: not given
Protocol: as §1

Molecule | Median fold change relative to IgG control [fold]
B1 | 3.2
B2 | 1.2
B3 | 1
B4 | 3.3
B5 | 2
B6 | 4.5
B7 | 5.2
B8 | 3.6
B9 | 3.6

target: T1, human C16orf54; assay: cell-based or functional assay; conditions: not given

Molecule | IC50 nM, cell viability, C16orf54 expressing sarcoma line 2, 72 hours [nM] | IC50 (nM), cell viability, C16orf54 expressing Sarcoma line 1, 72 hours [nM]
B10 | 0.2 | 0.1
B11 | 0.1 | 0.2
B12 | 0.1 | 0.1

target: T1, human C16orf54; assay: flow cytometry titration, KG1 cells (endogenous human C16orf54); conditions: not given

Molecule | EC50 [nM]
B1 | 0.7
B4 | 2.1
B5 | 1.5
B6 | 0.9
B7 | 2.6
B8 | 1.1
B9 | 0.6
